In PMC9482650, “Quantitative fragmentomics allow affinity mapping of interactomes” (Nature Communications, 2022):

T1: LIN7A, O14910
T1 sequence (O14910 103-200, limits assumed, looked up): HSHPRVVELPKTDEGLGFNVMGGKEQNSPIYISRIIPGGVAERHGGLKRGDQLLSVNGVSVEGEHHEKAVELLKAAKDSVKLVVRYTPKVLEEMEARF

T2: PARD3B_1, Q8TEW8
T2 sequence (Q8TEW8 196-299, limits assumed, looked up): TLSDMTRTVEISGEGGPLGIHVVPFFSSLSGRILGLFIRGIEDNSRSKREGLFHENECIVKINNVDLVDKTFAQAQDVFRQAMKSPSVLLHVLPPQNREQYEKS

T3: MPP2, Q14168
T3 sequence (Q14168 180-250, limits assumed, looked up): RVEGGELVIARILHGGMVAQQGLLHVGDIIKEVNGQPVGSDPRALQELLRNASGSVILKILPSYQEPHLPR

T4: FRMPD1, Q5SYB0
T4 sequence (Q5SYB0 52-145, limits assumed, looked up): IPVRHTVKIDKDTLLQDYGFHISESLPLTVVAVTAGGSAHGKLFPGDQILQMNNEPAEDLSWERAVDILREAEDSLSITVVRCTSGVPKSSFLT

T5: ARHGAP21, Q5T5U3
T5 sequence (Q5T5U3 45-169, limits assumed, looked up): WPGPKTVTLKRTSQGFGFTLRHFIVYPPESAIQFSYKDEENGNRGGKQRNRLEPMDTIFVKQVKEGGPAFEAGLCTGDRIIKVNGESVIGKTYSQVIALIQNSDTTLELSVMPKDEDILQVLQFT

T6: CARD11, Q9BXL7
T6 sequence (Q9BXL7 662-765, limits assumed, looked up): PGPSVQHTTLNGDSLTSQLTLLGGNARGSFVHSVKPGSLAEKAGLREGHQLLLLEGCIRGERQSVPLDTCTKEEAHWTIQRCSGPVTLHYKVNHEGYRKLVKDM

T7: RADIL, Q96JH8
T7 sequence (Q96JH8 971-1071, limits assumed, looked up): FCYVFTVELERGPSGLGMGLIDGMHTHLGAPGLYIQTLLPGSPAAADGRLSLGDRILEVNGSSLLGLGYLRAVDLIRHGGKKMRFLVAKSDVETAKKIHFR

T8: PDZRN3_1, Q9UPQ7
T8 sequence (Q9UPQ7 244-349, limits assumed, looked up): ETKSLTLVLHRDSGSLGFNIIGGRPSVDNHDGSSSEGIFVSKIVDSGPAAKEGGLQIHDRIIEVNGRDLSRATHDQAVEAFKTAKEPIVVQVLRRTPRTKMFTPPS

T9: LNX2_3, Q8N448
T9 sequence (Q8N448 463-564, limits assumed, looked up): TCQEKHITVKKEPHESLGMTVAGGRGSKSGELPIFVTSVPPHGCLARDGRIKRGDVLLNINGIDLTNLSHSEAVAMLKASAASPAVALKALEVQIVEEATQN

B1: FAM110B, Q8TC76 (peptide)
chain: ARESQKVSHV
B2: FZD2, Q14332 (peptide)
chain: TNSRHGETTV
B3: SCN5A, Q14524 (peptide)
chain: SPDRDRESIV
B4: KCNA7, Q96RP8 (peptide)
chain: PPGKHLVTEV

Molecular target: ARHGEF12, Q9NZN5-2
Assay: holdup assay
Set-up: key: below the threshold = too weak to quantify, mostly under pKd 3.1 to 4
Details: plain residues with an end cap or a label only (N-terminal biotin on a linker: ado-ado)

ARHGEF12, Q9NZN5-2, sequence (Q9NZN5 other isoform, or with tags, fused parts or gaps): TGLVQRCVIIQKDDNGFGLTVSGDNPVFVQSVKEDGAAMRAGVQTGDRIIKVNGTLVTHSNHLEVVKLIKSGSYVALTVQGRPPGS

Binder | pKd
B1 | 4.58
B2 | 3.57
B3 | below the threshold
B4 | 5.22

Molecular target: T1, LIN7A, O14910
Assay: holdup assay
Set-up: key: below the threshold = too weak to quantify, mostly under pKd 3.1 to 4
Details: plain residues with an end cap or a label only (N-terminal biotin on a linker: ado-ado)

Binder | pKd
B1 | below the threshold
B2 | 3.85
B3 | below the threshold
B4 | below the threshold

Molecular target: LIMK2, P53671
Assay: holdup assay
Set-up: key: below the threshold = too weak to quantify, mostly under pKd 3.1 to 4
Details: plain residues with an end cap or a label only (N-terminal biotin on a linker: ado-ado)

LIMK2, P53671, sequence (P53671 143-248): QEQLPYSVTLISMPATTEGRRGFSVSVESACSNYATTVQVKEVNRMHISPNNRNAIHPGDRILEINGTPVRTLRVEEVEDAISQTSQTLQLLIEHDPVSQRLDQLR

Binder | pKd
B1 | below the threshold
B2 | below the threshold
B3 | below the threshold
B4 | below the threshold

Molecular target: SCRIB_1, Q14160
Assay: holdup assay
Set-up: key: below the threshold = too weak to quantify, mostly under pKd 3.1 to 4
Details: plain residues with an end cap or a label only (N-terminal biotin on a linker: ado-ado)

SCRIB_1, Q14160, sequence (Q14160 718-814): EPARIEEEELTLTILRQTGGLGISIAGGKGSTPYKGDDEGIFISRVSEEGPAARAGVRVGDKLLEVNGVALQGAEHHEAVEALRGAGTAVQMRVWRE

Binder | pKd
B1 | 3.74
B2 | 4.25
B3 | 3.57
B4 | 4.72

Molecular target: GRIP2_6, Q9C0E4
Assay: holdup assay
Set-up: key: below the threshold = too weak to quantify, mostly under pKd 3.1 to 4
Details: plain residues with an end cap or a label only (N-terminal biotin on a linker: ado-ado)

GRIP2_6, Q9C0E4, sequence (Q9C0E4 648-740): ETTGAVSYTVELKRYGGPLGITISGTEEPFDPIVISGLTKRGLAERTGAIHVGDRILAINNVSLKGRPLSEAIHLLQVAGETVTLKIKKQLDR

Binder | pKd
B1 | below the threshold
B2 | below the threshold
B3 | below the threshold
B4 | below the threshold

Molecular target: Inadl_3, Q8NI35
Assay: holdup assay
Set-up: key: below the threshold = too weak to quantify, mostly under pKd 3.1 to 4
Details: plain residues with an end cap or a label only (N-terminal biotin on a linker: ado-ado)

Inadl_3, Q8NI35, sequence (Q8NI35 359-469): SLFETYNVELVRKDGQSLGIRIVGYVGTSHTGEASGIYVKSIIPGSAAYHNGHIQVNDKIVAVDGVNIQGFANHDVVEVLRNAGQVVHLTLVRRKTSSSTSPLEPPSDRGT

Binder | pKd
B1 | below the threshold
B2 | 3.51
B3 | 3.56
B4 | 3.7

Molecular target: Inadl_8, Q8NI35
Assay: holdup assay
Set-up: key: below the threshold = too weak to quantify, mostly under pKd 3.1 to 4
Details: plain residues with an end cap or a label only (N-terminal biotin on a linker: ado-ado)

Inadl_8, Q8NI35, sequence (Q8NI35 1425-1530): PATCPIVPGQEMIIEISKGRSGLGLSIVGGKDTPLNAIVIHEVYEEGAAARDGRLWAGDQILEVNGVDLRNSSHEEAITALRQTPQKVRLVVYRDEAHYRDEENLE

Binder | pKd
B1 | 4.8
B2 | 3.57
B3 | 3.85
B4 | 3.98

Molecular target: T2, PARD3B_1, Q8TEW8
Assay: holdup assay
Set-up: key: below the threshold = too weak to quantify, mostly under pKd 3.1 to 4
Details: plain residues with an end cap or a label only (N-terminal biotin on a linker: ado-ado)

Binder | pKd
B1 | below the threshold
B2 | below the threshold
B3 | below the threshold
B4 | below the threshold

Molecular target: MAST2, Q6P0Q8
Assay: holdup assay
Set-up: key: below the threshold = too weak to quantify, mostly under pKd 3.1 to 4
Details: plain residues with an end cap or a label only (N-terminal biotin on a linker: ado-ado)

MAST2, Q6P0Q8, sequence (Q6P0Q8 1099-1202): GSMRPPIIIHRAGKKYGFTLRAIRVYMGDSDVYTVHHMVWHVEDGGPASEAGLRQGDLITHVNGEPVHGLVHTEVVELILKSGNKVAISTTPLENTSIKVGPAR

Binder | pKd
B1 | 4.76
B2 | 5.05
B3 | 4.53
B4 | 5.21

Molecular target: PTPN3, P26045
Assay: holdup assay
Set-up: key: below the threshold = too weak to quantify, mostly under pKd 3.1 to 4
Details: plain residues with an end cap or a label only (N-terminal biotin on a linker: ado-ado)

PTPN3, P26045, sequence (P26045 505-587): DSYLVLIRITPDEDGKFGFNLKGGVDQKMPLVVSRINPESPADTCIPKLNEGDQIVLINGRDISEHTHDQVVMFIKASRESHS

Binder | pKd
B1 | 4.51
B2 | 4.61
B3 | 4.78
B4 | 4.74

Molecular target: T3, MPP2, Q14168
Assay: holdup assay
Set-up: key: below the threshold = too weak to quantify, mostly under pKd 3.1 to 4
Details: plain residues with an end cap or a label only (N-terminal biotin on a linker: ado-ado)

Binder | pKd
B1 | below the threshold
B2 | below the threshold
B3 | below the threshold
B4 | below the threshold

Molecular target: T4, FRMPD1, Q5SYB0
Assay: holdup assay
Set-up: key: below the threshold = too weak to quantify, mostly under pKd 3.1 to 4
Details: plain residues with an end cap or a label only (N-terminal biotin on a linker: ado-ado)

Binder | pKd
B1 | below the threshold
B2 | below the threshold
B3 | below the threshold
B4 | below the threshold

Molecular target: MAGI2_6, Q86UL8
Assay: holdup assay
Set-up: key: below the threshold = too weak to quantify, mostly under pKd 3.1 to 4
Details: plain residues with an end cap or a label only (N-terminal biotin on a linker: ado-ado)

MAGI2_6, Q86UL8, sequence (Q86UL8 1141-1229): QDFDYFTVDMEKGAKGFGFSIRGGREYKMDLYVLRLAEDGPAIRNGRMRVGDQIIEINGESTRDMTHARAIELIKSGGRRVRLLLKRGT

Binder | pKd
B1 | 4.43
B2 | 4.26
B3 | 3.67
B4 | 4.51

Molecular target: MAGI1_1, Q96QZ7
Assay: holdup assay
Set-up: key: below the threshold = too weak to quantify, mostly under pKd 3.1 to 4
Details: plain residues with an end cap or a label only (N-terminal biotin on a linker: ado-ado)

MAGI1_1, Q96QZ7, sequence (Q96QZ7 1-106): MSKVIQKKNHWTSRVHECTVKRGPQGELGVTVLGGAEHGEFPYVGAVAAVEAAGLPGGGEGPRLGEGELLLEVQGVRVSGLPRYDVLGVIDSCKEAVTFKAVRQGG

Binder | pKd
B1 | below the threshold
B2 | below the threshold
B3 | below the threshold
B4 | below the threshold

Molecular target: GIPC2, Q8TF65
Assay: holdup assay
Set-up: key: below the threshold = too weak to quantify, mostly under pKd 3.1 to 4
Details: plain residues with an end cap or a label only (N-terminal biotin on a linker: ado-ado)

GIPC2, Q8TF65, sequence (Q8TF65 112-203): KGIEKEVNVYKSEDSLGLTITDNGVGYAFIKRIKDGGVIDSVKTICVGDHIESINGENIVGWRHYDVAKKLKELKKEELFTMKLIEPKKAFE

Binder | pKd
B1 | below the threshold
B2 | 4.22
B3 | 4.06
B4 | below the threshold

Molecular target: T5, ARHGAP21, Q5T5U3
Assay: holdup assay
Set-up: key: below the threshold = too weak to quantify, mostly under pKd 3.1 to 4
Details: plain residues with an end cap or a label only (N-terminal biotin on a linker: ado-ado)

Binder | pKd
B1 | 3.92
B2 | 4.04
B3 | 3.91
B4 | below the threshold

Molecular target: T6, CARD11, Q9BXL7
Assay: holdup assay
Set-up: key: below the threshold = too weak to quantify, mostly under pKd 3.1 to 4
Details: plain residues with an end cap or a label only (N-terminal biotin on a linker: ado-ado)

Binder | pKd
B1 | below the threshold
B2 | below the threshold
B3 | below the threshold
B4 | below the threshold

Molecular target: NHERF4_1, Q86UT5-2
Assay: holdup assay
Set-up: key: below the threshold = too weak to quantify, mostly under pKd 3.1 to 4
Details: plain residues with an end cap or a label only (N-terminal biotin on a linker: ado-ado)

NHERF4_1, Q86UT5-2, sequence (Q86UT5 other isoform, or with tags, fused parts or gaps): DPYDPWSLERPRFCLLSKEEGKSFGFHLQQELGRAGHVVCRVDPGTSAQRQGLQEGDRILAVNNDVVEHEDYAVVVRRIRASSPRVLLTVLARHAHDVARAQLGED

Binder | pKd
B1 | 3.74
B2 | below the threshold
B3 | below the threshold
B4 | 3.94

Molecular target: T7, RADIL, Q96JH8
Assay: holdup assay
Set-up: key: below the threshold = too weak to quantify, mostly under pKd 3.1 to 4
Details: plain residues with an end cap or a label only (N-terminal biotin on a linker: ado-ado)

Binder | pKd
B1 | 4.55
B2 | 4
B3 | 4.12
B4 | 4.52

Molecular target: Inadl_10, Q8NI35
Assay: holdup assay
Set-up: key: below the threshold = too weak to quantify, mostly under pKd 3.1 to 4
Details: plain residues with an end cap or a label only (N-terminal biotin on a linker: ado-ado)

Inadl_10, Q8NI35, sequence (Q8NI35 1673-1763): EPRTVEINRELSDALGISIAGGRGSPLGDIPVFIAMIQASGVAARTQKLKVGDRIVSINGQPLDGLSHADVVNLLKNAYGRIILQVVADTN

Binder | pKd
B1 | below the threshold
B2 | below the threshold
B3 | below the threshold
B4 | 3.7

Molecular target: FRMPD3, Q5JV73
Assay: holdup assay
Set-up: key: below the threshold = too weak to quantify, mostly under pKd 3.1 to 4
Details: plain residues with an end cap or a label only (N-terminal biotin on a linker: ado-ado)

FRMPD3, Q5JV73, sequence (Q5JV73 12-100): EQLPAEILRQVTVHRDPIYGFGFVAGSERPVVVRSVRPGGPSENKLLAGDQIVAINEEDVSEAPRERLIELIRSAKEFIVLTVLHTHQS

Binder | pKd
B1 | below the threshold
B2 | below the threshold
B3 | below the threshold
B4 | below the threshold

Molecular target: LDB3, O75112
Assay: holdup assay
Set-up: key: below the threshold = too weak to quantify, mostly under pKd 3.1 to 4
Details: plain residues with an end cap or a label only (N-terminal biotin on a linker: ado-ado)

LDB3, O75112, sequence (O75112 1-94): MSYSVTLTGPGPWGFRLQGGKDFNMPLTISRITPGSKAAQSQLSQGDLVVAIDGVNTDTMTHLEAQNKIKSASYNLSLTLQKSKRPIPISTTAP

Binder | pKd
B1 | below the threshold
B2 | below the threshold
B3 | below the threshold
B4 | below the threshold

Molecular target: MAGI2_5, Q86UL8
Assay: holdup assay
Set-up: key: below the threshold = too weak to quantify, mostly under pKd 3.1 to 4
Details: plain residues with an end cap or a label only (N-terminal biotin on a linker: ado-ado)

MAGI2_5, Q86UL8, sequence (Q86UL8 915-1017): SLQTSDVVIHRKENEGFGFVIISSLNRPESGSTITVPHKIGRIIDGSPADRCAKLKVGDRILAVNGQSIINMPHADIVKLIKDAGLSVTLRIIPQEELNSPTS

Binder | pKd
B1 | 3.66
B2 | 3.6
B3 | 4.12
B4 | 4.73

Molecular target: GRASP, Q7Z6J2
Assay: holdup assay
Set-up: key: below the threshold = too weak to quantify, mostly under pKd 3.1 to 4
Details: plain residues with an end cap or a label only (N-terminal biotin on a linker: ado-ado)

GRASP, Q7Z6J2, sequence (Q7Z6J2 96-193): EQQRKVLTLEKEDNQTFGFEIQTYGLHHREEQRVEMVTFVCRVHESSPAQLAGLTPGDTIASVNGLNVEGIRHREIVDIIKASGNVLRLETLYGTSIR

Binder | pKd
B1 | 3.8
B2 | 3.56
B3 | below the threshold
B4 | 4.6

Molecular target: T8, PDZRN3_1, Q9UPQ7
Assay: holdup assay
Set-up: key: below the threshold = too weak to quantify, mostly under pKd 3.1 to 4
Details: plain residues with an end cap or a label only (N-terminal biotin on a linker: ado-ado)

Binder | pKd
B1 | below the threshold
B2 | 3.99
B3 | 3.91
B4 | below the threshold

Molecular target: T9, LNX2_3, Q8N448
Assay: holdup assay
Set-up: key: below the threshold = too weak to quantify, mostly under pKd 3.1 to 4
Details: plain residues with an end cap or a label only (N-terminal biotin on a linker: ado-ado)

Binder | pKd
B1 | below the threshold
B2 | below the threshold
B3 | below the threshold
B4 | below the threshold

Molecular target: SNX27, Q96L92
Assay: holdup assay
Set-up: key: below the threshold = too weak to quantify, mostly under pKd 3.1 to 4
Details: plain residues with an end cap or a label only (N-terminal biotin on a linker: ado-ado)

Binder | pKd
B1 | 4.42
B2 | 5.64
B3 | 5.26
B4 | 4.95

Molecular target: DLG4_1, P78352
Assay: holdup assay
Set-up: key: below the threshold = too weak to quantify, mostly under pKd 3.1 to 4
Details: plain residues with an end cap or a label only (N-terminal biotin on a linker: ado-ado)

DLG4_1, P78352, sequence (P78352 62-152): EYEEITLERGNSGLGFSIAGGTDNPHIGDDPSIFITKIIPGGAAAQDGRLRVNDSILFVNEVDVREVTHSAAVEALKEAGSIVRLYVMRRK

Binder | pKd
B1 | 4.06
B2 | 4.85
B3 | 4.46
B4 | 4.64

Molecular target: DLG2_2, Q15700
Assay: holdup assay
Set-up: key: below the threshold = too weak to quantify, mostly under pKd 3.1 to 4
Details: plain residues with an end cap or a label only (N-terminal biotin on a linker: ado-ado)

DLG2_2, Q15700, sequence (Q15700 189-283): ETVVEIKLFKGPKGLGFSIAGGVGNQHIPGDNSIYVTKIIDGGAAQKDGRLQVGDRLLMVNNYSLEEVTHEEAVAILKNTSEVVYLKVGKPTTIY

Binder | pKd
B1 | 4.24
B2 | 4.81
B3 | 4.58
B4 | 5.01
